Substrate: NC(=O)c1ccc[n+]([C@@H]2O[C@H](COP(=O)([O-])OP(=O)(O)OC[C@H]3O[C@@H](n4cnc5c(N)ncnc54)[C@H](O)[C@@H]3O)[C@@H](O)[C@H]2O)c1
Test: purified protein
Format: biochemical, Homo sapiens

B1: Sirt1 (Homo sapiens) (protein)
chain: ADEAALALQPGGSPSAAGADREAASSPAGEPLRKRPRRDGPGLERSPGEPGGAAPEREVPAAARGCPGAAAAALWREAEAEAAAAGGEQEAQATAAAGEGDNGPGLQGPSREPPLADNLYDEDDDDEGEEEEEAAAAAIGYRDNLLFGDEIITNGFHSCESDEEDRASHASSSDWTPRPRIGPYTFVQQHLMIGTDPRTILKDLLPETIPPPELDDMTLWQIVINILSEPPKRKKRKDINTIEDAVKLLQECKKIIVLTGAGVSVSCGIPDFRSRDGIYARLAVDFPDLPDPQAMFDIEYFRKDPRPFFKFAKEIYPGQFQPSLCHKFIALSDKEGKLLRNYTQNIDTLEQVAGIQRIIQCHGSFATASCLICKYKVDCEAVRGDIFNQVVPRCPRCPADEPLAIMKPEIVFFGENLPEQFHRAMKYDKDEVDLLIVIGSSLKVRPVALIPSSIPHEVPQILINREPLPHLHFDVELLGDCDVIINELCHRLGGEYAKLCCNPVKLSEITEKPPRTQKELAYLSELPPTPLHVSEDSSSPERTSPPDSSVIVTLLDQAAKSNDDLDVSESKGCMEEKPQEVQTSRNVESIAEQMENPDLKNVGSSTGEKNERTSVAGTVRKCWPNRVAKEQISRRLDGNQYLFLPPNRYIFHGAEVYSDSEDDVLSSSSCGSNSDSGTCQSPSLEEPMEDESEIEEFYNGLEDEPDVPERAGGAGFGTDGDDQEAINEAISVKQEVTDMNYPSNKS
Q: B1 was tested. Which Km did it give?
A: 171 ± 23 µM

— PMC2752052
